Results published in patent US20200164038A1, “MODIFIED NUCLEOSIDE, NUCLEOTIDE, AND NUCLEIC ACID COMPOSITIONS” (ModernaTX, Inc., priority 2011, published 2020).

Experiments:
[1] = Stability of modified RNA on storage (gel electrophoresis); type: physicochemical
Method: Stability experiments were conducted to obtain a better understanding of storage conditions to retain the integrity of modified RNA. […] 40° C. 37° C. 25° C. 4° C. or −20° C. After the mRNA had been stored for 0 hours, 2 hours, 6 hours, 24 hours, 48 hours, 5 days and 14 days, the mRNA was analyzed by gel electrophoresis using a Bio-Rad EXPERION™ system. The modified, unmodified and lipoplexed G-CSF mRNA was also stored in RNASTABLE® (Biomatrica, Inc. San Diego, Calif.) at 40° C. or water at −80° C. or 40° C. for 35 days before being analyzed by gel electrophoresis.
mRNA samples stored at 4° C. 25° C. and 37° C. were stored in 1×TE buffer or the formulation buffer (150 mM sodium chloride, 2 mM calcium chloride, 2 mM phosphate, 0.5 mM EDTA at a pH of 6.5). The mRNA stored at 4° C. was stable to at least 60 days in both the TE and formulation buffer. At 25° C. the mRNA in formulation buffer was stable out to 14 days and the TE buffer was stable out to at least 6 days. Storage of mRNA in the formulation buffer at 37° C. was stable to 6 days compared to the TE buffer which was stable only until 4 days.

[2] = system: mice; assay: Saline formulation: human protein in mouse serum 13 hours after injection; type: in vivo; details: G-CSF group, 100 ug
Method: The mice were bled at 13 hours after the injection to determine the concentration of the human polypeptide in serum in pg/mL. (G-CSF groups measured human G-CSF in mouse serum and EPO groups measured human EPO in mouse serum).

B1: G-CSF Gen 1: G-CSF mRNA SEQ ID NO 6, Cap1, fully modified with 5-methylcytosine and pseudouridine (nucleic acid, listed as Homo sapiens)
chain: GGGAAAUAAGAGAGAAAAGAAGAGUAAGAAGAAAUAUAAGAGCCACCAUGGCCGGUCCCGCGACCCAAAGCCCCAUGAAACUUAUGGCCCUGCAGUUGCUGCUUUGGCACUCGGCCCUCUGGACAGUCCAAGAAGCGACUCCUCUCGGACCUGCCUCAUCGUUGCCGCAGUCAUUCCUUUUGAAGUGUCUGGAGCAGGUGCGAAAGAUUCAGGGCGAUGGAGCCGCACUCCAAGAGAAGCUCUGCGCGACAUACAAACUUUGCCAUCCCGAGGAGCUCGUACUGCUCGGGCACAGCUUGGGGAUUCCCUGGGCUCCUCUCUCGUCCUGUCCGUCGCAGGCUUUGCAGUUGGCAGGGUGCCUUUCCCAGCUCCACUCCGGUUUGUUCUUGUAUCAGGGACUGCUGCAAGCCCUUGAGGGAAUCUCGCCAGAAUUGGGCCCGACGCUGGACACGUUGCAGCUCGACGUGGCGGAUUUCGCAACAACCAUCUGGCAGCAGAUGGAGGAACUGGGGAUGGCACCCGCGCUGCAGCCCACGCAGGGGGCAAUGCCGGCCUUUGCGUCCGCGUUUCAGCGCAGGGCGGGUGGAGUCCUCGUAGCGAGCCACCUUCAAUCAUUUUUGGAAGUCUCGUACCGGGUGCUGAGACAUCUUGCGCAGCCGUGAAGCGCUGCCUUCUGCGGGGCUUGCCUUCUGGCCAUGCCCUUCUUCUCUCCCUUGCACCUGUACCUCUUGGUCUUUGAAUAAAGCCUGAGUAGGAAG
modifications: Cap1; 5-methylcytosine, pseudouridine
[1]; stored at 25° C., with or without lipoplex
  stable out to: 120 h
[1]; stored at 37° C.
  stable out to: 24 h
[1]; stored at 50° C.
  stable out to: 6 h
[2]
  Average Protein Product, human G-CSF: 45 pg/mL, serum
